Experimental data taken from paper PMC10397247.

What was measured:
Test in all cases: two-hybrid library CCmax;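 further: natural log of median RNA to DNA barcode read ratio; higher means stronger binding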
4H662-AA = target: T1, 4H662-AA; details: mean of both orientations
T1 chain: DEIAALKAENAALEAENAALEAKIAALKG

4H369-AA = target: T2, 4H369-AA
T2 chain: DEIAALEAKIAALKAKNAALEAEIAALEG

4H3922-AA = target: T3, 4H3922-AA; details: mean of both orientations
T3 chain: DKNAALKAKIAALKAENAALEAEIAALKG

4H481-AA = target: T4, 4H481-AA; details: mean of both orientations
T4 chain: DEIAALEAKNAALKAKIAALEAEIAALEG

4H55-AA = target: T5, 4H55-AA; details: mean of both orientations
T5 chain: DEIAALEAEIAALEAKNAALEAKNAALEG

4H4033-AA = target: T6, 4H4033-AA; details: mean of both orientations
T6 chain: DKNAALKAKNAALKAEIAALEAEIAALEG

4H510-AA = target: T7, 4H510-AA; details: mean of both orientations
T7 chain: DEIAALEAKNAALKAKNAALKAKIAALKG

4H775-AA = target: T8, 4H775-AA; details: mean of both orientations
T8 chain: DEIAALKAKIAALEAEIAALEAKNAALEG

4H3940-AA = target: T9, 4H3940-AA; details: mean of both orientations
T9 chain: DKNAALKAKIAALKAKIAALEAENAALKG

4H816-AA = target: T10, 4H816-AA; details: mean of both orientations
T10 chain: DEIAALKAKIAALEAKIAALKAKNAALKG

4H390-AA = target: T11, 4H390-AA
T11 chain: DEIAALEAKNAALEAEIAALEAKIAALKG

4H87-AA = target: T12, 4H87-AA; details: mean of both orientations
T12 chain: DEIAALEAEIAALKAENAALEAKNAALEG

4H380-AA = target: T13, 4H380-AA; details: mean of both orientations
T13 chain: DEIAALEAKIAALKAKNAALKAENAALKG

4H3094-AA = target: T14, 4H3094-AA; details: mean of both orientations
T14 chain: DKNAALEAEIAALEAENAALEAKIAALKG

4H3595-AA = target: T15, 4H3595-AA
T15 chain: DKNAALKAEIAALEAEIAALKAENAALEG

4H3629-AA = target: T16, 4H3629-AA
T16 chain: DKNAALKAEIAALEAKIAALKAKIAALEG

4H3969-AA = target: T17, 4H3969-AA; details: mean of both orientations
T17 chain: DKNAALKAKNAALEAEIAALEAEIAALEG

4H3449-AA = target: T18, 4H3449-AA; details: mean of both orientations
T18 chain: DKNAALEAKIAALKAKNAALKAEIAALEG

4H483-AA = target: T19, 4H483-AA; details: mean of both orientations
T19 chain: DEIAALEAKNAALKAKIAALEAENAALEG

4H446-AA = target: T20, 4H446-AA; details: mean of both orientations
T20 chain: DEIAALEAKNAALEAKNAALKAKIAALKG

4H432-AA = target: T21, 4H432-AA; details: mean of both orientations
T21 chain: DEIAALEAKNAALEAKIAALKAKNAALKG

4H3915-AA = target: T22, 4H3915-AA; details: mean of both orientations
T22 chain: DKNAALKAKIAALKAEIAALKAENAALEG

4H3939-AA = target: T23, 4H3939-AA; details: mean of both orientations
T23 chain: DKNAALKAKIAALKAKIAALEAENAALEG

4H3619-AA = target: T24, 4H3619-AA; details: mean of both orientations
T24 chain: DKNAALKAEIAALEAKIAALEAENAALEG

4H464-AA = target: T25, 4H464-AA; details: mean of both orientations
T25 chain: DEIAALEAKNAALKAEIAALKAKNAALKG

4H341-AA = target: T26, 4H341-AA; details: mean of both orientations
T26 chain: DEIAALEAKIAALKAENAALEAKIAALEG

4H63-AA = target: T27, 4H63-AA
T27 chain: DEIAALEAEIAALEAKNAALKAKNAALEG

4H324-AA = target: T28, 4H324-AA; details: mean of both orientations
T28 chain: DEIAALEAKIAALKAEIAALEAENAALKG

4H3974-AA = target: T29, 4H3974-AA; details: mean of both orientations
T29 chain: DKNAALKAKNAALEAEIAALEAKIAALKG

4H3414-AA = target: T30, 4H3414-AA; details: mean of both orientations
T30 chain: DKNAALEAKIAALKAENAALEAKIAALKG

4H3129-AA = target: T31, 4H3129-AA; details: mean of both orientations
T31 chain: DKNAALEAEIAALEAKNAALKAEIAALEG

4H2961-AA = target: T32, 4H2961-AA
T32 chain: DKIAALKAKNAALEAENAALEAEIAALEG

4H3049-AA = target: T33, 4H3049-AA; details: mean of both orientations
T33 chain: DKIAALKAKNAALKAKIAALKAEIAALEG

4H3782-AA = target: T34, 4H3782-AA; details: mean of both orientations
T34 chain: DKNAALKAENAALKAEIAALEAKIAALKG

4H3777-AA = target: T35, 4H3777-AA; details: mean of both orientations
T35 chain: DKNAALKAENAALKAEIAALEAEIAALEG

## DEIAALEAKIAALKAKNAALEAEIAALEG [4H369-AA]
4H662-AA
  interaction score: 1.3
4H369-AA
  interaction score: -0.526
4H3922-AA
  interaction score: 0.000191
4H481-AA
  interaction score: -0.912
4H55-AA
  interaction score: -0.33
4H4033-AA
  interaction score: -0.678

## DEIAALEAKNAALEAEIAALEAKIAALKG [4H390-AA]
4H510-AA
  interaction score: 1.57
4H775-AA
  interaction score: -0.316
4H3940-AA
  interaction score: -0.115
4H816-AA
  interaction score: 0.183
4H390-AA
  interaction score: 2.23
4H87-AA
  interaction score: -1.41

## DKIAALKAKNAALEAENAALEAEIAALEG [4H2961-AA]
4H380-AA
  interaction score: -1.56
4H3094-AA
  interaction score: -1.08
4H3595-AA
  interaction score: -1.7
4H3629-AA
  interaction score: -1.26
4H3969-AA
  interaction score: -1.8
4H3449-AA
  interaction score: -1.67
4H483-AA
  interaction score: -1.35
4H446-AA
  interaction score: 1.97
4H432-AA
  interaction score: -0.0165
4H3915-AA
  interaction score: -1.91
4H3939-AA
  interaction score: -1.84
4H3619-AA
  interaction score: -1.98
4H464-AA
  interaction score: -0.618
4H341-AA
  interaction score: -0.961
4H63-AA
  interaction score: -1.2
4H324-AA
  interaction score: -1.69
4H3974-AA
  interaction score: -1.82
4H3414-AA
  interaction score: -1.46
4H3129-AA
  interaction score: -1.5
4H2961-AA
  interaction score: -1.84
4H3049-AA
  interaction score: 1.02
4H3782-AA
  interaction score: -1.44
4H3777-AA
  interaction score: -1.97
